Where no end group is shown, it is not given here. [ ]: non-standard residue; d: D form. The star is where a group is joined. Desaminotyrosyl = O=C(CCc1ccc(O)cc1)*; dPal = not defined here
What was measured:
[1] = biological target: T1, Ghrelin/GHRP/GHS Receptor (Rattus norvegicus, UniProt O08725); assay: In vitro GH release from isolated pituitary glands, pituitary incubation method; format: cell-based; settings: Table 1
Protocol: Hormonal activities were obtained from in vitro studies using pituitaries of 20 day old CD-1 strain Sprague Dawley female rats. Two pituitaries were incubated for a total of 4-6 hours. Medium was removed each hour for RIA of GH level and fresh medium was added again. After two one hour preincubation periods (P1-P2), the vehicle/peptides were added to two one hour incubations (I3-I4). Peptide activity was calculated as the change in the hormonal level (delta) between I3+I4 and P2. For antagonist activity, the incubation was continued for 2 additional hours (I5-I6) where both the peptide and a stimulator of GH secretion was added and the antagonist activity was calculated as the change in the hormonal level (delta) between I5+I6 and P2. The peptides were assayed in triplicate and the hormone was assayed in duplicate. Each value recorded represents the mean of 6. The GH RIA reagents were distributed by the NIH. Control data was collected from isolated pituitary glands treated with only the corresponding vehicle in the absence of peptide or stimulator. Control stimulated data was collected from isolated pituitary glands treated with stimulator alone in the absence of any peptide.

[2] = biological target: T1, Ghrelin/GHRP/GHS Receptor; assay: In vitro GH release from cell culture of pituitary cells; format: cell-based; parameters: After dispersion, the cells were collected by centrifugation, wash with DMEM and placed into culture well; endogenous in cells; host or cells: dispersed primary rat anterior pituitary cells; settings: Table 8
Protocol: In vitro GH Release-Female rats of the CD-1 strain were housed in a constant temperature room at 24° C. with 14 h light and 10 h darkness. The rats were fed Purina Rat chow and water at libitum. All studies were started between 0800-1000 hours. Pituitaries of mature female Sprague Dawley rats were rapidly removed after decapitation, neurointermediate lobe discarded and then placed in a pH 7.4 buffer. The pituitaries were cut into ˜3-mm pieces and then transferred to a flask containing HEPS buffer with trypsin and incubated at 37° C. Cells were triturated several times during this period. After dispersion, the cells were collected by centrifugation, wash with DMEM and placed into culture well. Cell cultures were maintained for 4 days at 37° with 8% CO2 added to the incubator atmosphere. After 4 days in culture, cells were washed with lactated Ringer's solution adjusted to pH 7.2-7.4 and then vehicle, peptide alone or peptide plus stimulator was added to media. Incubation time was 60-120 minutes after which media was removed from each well for GH determination. The GH RIA reagents were distributed by the NIH. Control data was collected from cell cultures treated with only the corresponding vehicle in the absence of peptide or stimulator. Control stimulated data was collected from cell cultures treated with stimulator alone in the absence of any peptide.

[3] = peptide antagonist 3 μg/ml + stimulator His-DTrp-Ala-Trp-DPhe-Lys-NH2 10 ng/ml
[4] = peptide antagonist 10 μg/ml + stimulator His-DTrp-Ala-Trp-DPhe-Lys-NH2 10 ng/ml
[5] = peptide antagonist 30 μg/ml + stimulator His-DTrp-Ala-Trp-DPhe-Lys-NH2 10 ng/ml
[6] = peptide antagonist 0.3 μg/ml + stimulator His-DTrp-Ala-Trp-DPhe-Lys-NH2 10 ng/ml
[7] = peptide antagonist 1 μg/ml + stimulator His-DTrp-Ala-Trp-DPhe-Lys-NH2 10 ng/ml
[8] = peptide antagonist dosage 3 (head prints μg/i.v.)
[9] = peptide antagonist dosage 10 (head prints μg/i.v.)
[10] = peptide antagonist dosage 30 (head prints μg/i.v.)
[11] = peptide antagonist dosage 100 (head prints μg/i.v.)

T1 sequence (O08725 whole entry): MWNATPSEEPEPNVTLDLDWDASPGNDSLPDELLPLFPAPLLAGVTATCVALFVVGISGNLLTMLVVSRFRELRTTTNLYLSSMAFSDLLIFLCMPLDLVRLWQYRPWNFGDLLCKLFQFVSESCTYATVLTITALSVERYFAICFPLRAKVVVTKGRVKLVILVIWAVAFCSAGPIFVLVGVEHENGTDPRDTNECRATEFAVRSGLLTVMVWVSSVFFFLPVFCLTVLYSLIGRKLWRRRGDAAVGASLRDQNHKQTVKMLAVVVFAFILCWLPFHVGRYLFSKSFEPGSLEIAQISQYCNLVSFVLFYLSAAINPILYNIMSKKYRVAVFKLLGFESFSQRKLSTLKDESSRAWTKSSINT

| Substance | Change in stimulated GH release versus preincubation (delta) [1, 3] | Unstimulated Basal GH release from cell cultures of pituitary cells [2, 8] | Unstimulated Basal GH release from cell cultures of pituitary cells [2, 9] | Unstimulated Basal GH release from cell cultures of pituitary cells [2, 10] | Change in stimulated GH release versus preincubation (delta) [1, 4] | Change in stimulated GH release versus preincubation (delta) [1, 5] | also measured |
| --- | --- | --- | --- | --- | --- | --- | --- |
| His-DTrp-DArg-Trp-DPhe-NH2 (chain 1 H[dW][dR]W[dF]-NH2; chain 2 H[dW][dR]W[dF]-NH2; not fully specified; printed as His-DTrp-DArg-Trp-DPhe-NH2) | 341 ± 222 ng/mL | – | – | – | -125 ± 101 ng/mL | -122 ± 44 ng/mL | – |
| DesaminoTyr-DTrp-DLys-Trp-DPhe-NH2 ([Desaminotyrosyl][dW][dK]W[dF]-NH2; SMILES NCCCC[C@@H](NC(=O)[C@@H](Cc1c[nH]c2ccccc12)NC(=O)CCc1ccc(O)cc1)C(=O)N[C@@H](Cc1c[nH]c2ccccc12)C(=O)N[C@H](Cc1ccccc1)C(N)=O) | -466 ± 432 ng/mL | – | – | – | -1068 ± 318 ng/mL | -576 ± 110 ng/mL | Change in stimulated GH release versus preincubation (delta) ([1]; peptide antagonist 0.1 μg/ml + stimulator His-DTrp-Ala-Trp-DPhe-Lys-NH2 10 ng/ml): 4297 ± 1061 ng/mL; Change in stimulated GH release versus preincubation (delta) [1, 6]: 2404 ± 802 ng/mL; Change in stimulated GH release versus preincubation (delta) [1, 7]: 688 ± 327 ng/mL |
| Tyr-DTrp-DTrp-Phe-Phe-NH2 (Y[dW][dW]FF-NH2; N-terminus assumed; SMILES NC(=O)[C@H](Cc1ccccc1)NC(=O)[C@H](Cc1ccccc1)NC(=O)[C@@H](Cc1c[nH]c2ccccc12)NC(=O)[C@@H](Cc1c[nH]c2ccccc12)NC(=O)[C@@H](N)Cc1ccc(O)cc1) | – | – | – | – | 1034 ± 182 ng/mL | -167 ± 157 ng/mL | Change in stimulated GH release versus preincubation (delta) [1, 6]: 1274 ± 329 ng/mL |
| His-DTrp-DLys-Trp-DPhe-NH2 (H[dW][dK]W[dF]-NH2; N-terminus assumed; SMILES NCCCC[C@@H](NC(=O)[C@@H](Cc1c[nH]c2ccccc12)NC(=O)[C@@H](N)Cc1c[nH]cn1)C(=O)N[C@@H](Cc1c[nH]c2ccccc12)C(=O)N[C@H](Cc1ccccc1)C(N)=O) | 949 ± 178 ng/mL | – | – | – | – | 91 ± 103 ng/mL | Change in stimulated GH release versus preincubation (delta) [1, 6]: 1765 ± 160 ng/mL |
| DesaminoTyr-DTrp-Ser-Trp-DPhe-NH2 ([Desaminotyrosyl][dW]SW[dF]-NH2; SMILES NC(=O)[C@@H](Cc1ccccc1)NC(=O)[C@H](Cc1c[nH]c2ccccc12)NC(=O)[C@H](CO)NC(=O)[C@@H](Cc1c[nH]c2ccccc12)NC(=O)CCc1ccc(O)cc1) | – | – | – | – | 3119 ± 488 ng/mL | 3258 ± 682 ng/mL | – |
| DesaminoTyr-DTrp-Ala-Trp-DPhe-NH2 ([Desaminotyrosyl][dW]AW[dF]-NH2; SMILES C[C@H](NC(=O)[C@@H](Cc1c[nH]c2ccccc12)NC(=O)CCc1ccc(O)cc1)C(=O)N[C@@H](Cc1c[nH]c2ccccc12)C(=O)N[C@H](Cc1ccccc1)C(N)=O) | 1302 ± 269 ng/mL | – | – | – | – | -959 ± 75 ng/mL | – |
| Tyr-DTrp-Lys-Trp-DPhe-NH2 (Y[dW]KW[dF]-NH2; N-terminus assumed; SMILES NCCCC[C@H](NC(=O)[C@@H](Cc1c[nH]c2ccccc12)NC(=O)[C@@H](N)Cc1ccc(O)cc1)C(=O)N[C@@H](Cc1c[nH]c2ccccc12)C(=O)N[C@H](Cc1ccccc1)C(N)=O) | – | – | – | – | – | – | Change in stimulated GH release versus preincubation (delta) ([1]; peptide antagonist 100 μg/ml + stimulator His-DTrp-Ala-Trp-DPhe-Lys-NH2 10 ng/ml): -555 ± 121 ng/mL |
| DeaminoTyr-DTrp-Ser-Trp-DPhe-Lys-NH2 ([Desaminotyrosyl][dW]SW[dF]K-NH2; SMILES NCCCC[C@H](NC(=O)[C@@H](Cc1ccccc1)NC(=O)[C@H](Cc1c[nH]c2ccccc12)NC(=O)[C@H](CO)NC(=O)[C@@H](Cc1c[nH]c2ccccc12)NC(=O)CCc1ccc(O)cc1)C(N)=O) | – | – | – | – | 3325 ± 391 ng/mL | 3810 ± 621 ng/mL | – |
| His-DTrp-DTrp-Lys-NH2 (H[dW][dW]K-NH2; N-terminus assumed; SMILES NCCCC[C@H](NC(=O)[C@@H](Cc1c[nH]c2ccccc12)NC(=O)[C@@H](Cc1c[nH]c2ccccc12)NC(=O)[C@@H](N)Cc1c[nH]cn1)C(N)=O) | – | 1124 ± 37 ng/mL | 749 ± 10 ng/mL | 615 ± 41 ng/mL | – | – | – |
| Tyr-DTrp-DLys-Trp-DPhe-NH2 (Y[dW][dK]W[dF]-NH2; N-terminus assumed; SMILES NCCCC[C@@H](NC(=O)[C@@H](Cc1c[nH]c2ccccc12)NC(=O)[C@@H](N)Cc1ccc(O)cc1)C(=O)N[C@@H](Cc1c[nH]c2ccccc12)C(=O)N[C@H](Cc1ccccc1)C(N)=O) | -480 ± 95 ng/mL | – | – | – | – | -363 ± 66 ng/mL | – |
| Ac-DLys-Tyr-DTrp-DTrp-Phe-NH2 (Ac-[dK]Y[dW][dW]F-NH2; SMILES CC(=O)N[C@H](CCCCN)C(=O)N[C@@H](Cc1ccc(O)cc1)C(=O)N[C@H](Cc1c[nH]c2ccccc12)C(=O)N[C@H](Cc1c[nH]c2ccccc12)C(=O)N[C@@H](Cc1ccccc1)C(N)=O) | – | 105 ± 8 ng/mL | 950 ± 91 ng/mL | 782 ± 56 ng/mL | – | – | Unstimulated Basal GH release from cell cultures of pituitary cells [2, 11]: 756 ± 1 ng/mL |

More lines, main results first:

| Change in stimulated GH release versus preincubation (delta) [1, 3] | Unstimulated Basal GH release from cell cultures of pituitary cells [2, 8] | Unstimulated Basal GH release from cell cultures of pituitary cells [2, 9] | Unstimulated Basal GH release from cell cultures of pituitary cells [2, 10] | Substance | Change in stimulated GH release versus preincubation (delta) [1, 4] | Change in stimulated GH release versus preincubation (delta) [1, 5] | also measured |
| --- | --- | --- | --- | --- | --- | --- | --- |
| 445 ± 188 ng/mL | – | – | – | His-DTrp-DTrp-Phe-Met-NH2 (H[dW][dW]FM-NH2; N-terminus assumed; SMILES CSCC[C@H](NC(=O)[C@H](Cc1ccccc1)NC(=O)[C@@H](Cc1c[nH]c2ccccc12)NC(=O)[C@@H](Cc1c[nH]c2ccccc12)NC(=O)[C@@H](N)Cc1c[nH]cn1)C(N)=O) | 287 ± 68 ng/mL | -319 ± 95 ng/mL | Change in stimulated GH release versus preincubation (delta) [1, 6]: 1542 ± 523 ng/mL; Change in stimulated GH release versus preincubation (delta) [1, 7]: 323 ± 69 ng/mL |
| – | 1480 ± 19 ng/mL | 802 ± 26 ng/mL | 601 ± 16 ng/mL | Arg-DTrp-Leu-Tyr-Trp-Pro(cyclic Arg-Pro) | – | – | Unstimulated Basal GH release from cell cultures of pituitary cells [2, 11]: 509 ± 49 ng/mL |
| 134 ± 91 ng/mL | – | – | – | His-DTrp-DLys-Trp-DPhe-Lys-NH2 (H[dW][dK]W[dF]K-NH2; N-terminus assumed; SMILES NCCCC[C@H](NC(=O)[C@@H](Cc1ccccc1)NC(=O)[C@H](Cc1c[nH]c2ccccc12)NC(=O)[C@@H](CCCCN)NC(=O)[C@@H](Cc1c[nH]c2ccccc12)NC(=O)[C@@H](N)Cc1c[nH]cn1)C(N)=O) | -83 ± 132 ng/mL | -175 ± 59 ng/mL | Change in stimulated GH release versus preincubation (delta) [1, 6]: 952 ± 200 ng/mL; Change in stimulated GH release versus preincubation (delta) [1, 7]: 324 ± 181 ng/mL |
| – | 1105 ± 18 ng/mL | 891 ± 4 ng/mL | 567 ± 24 ng/mL | DPal-Trp-DPhe-Phe-Met-NH2 ([dPal]W[dF]FM-NH2; reading uncertain; also: printed as DPal-Trp-DPhe-Phe-Met-NH2) | – | – | – |
| – | 1264 ± 2 ng/mL | 980 ± 72 ng/mL | 699 ± 7 ng/mL | Ac-DβNal-DTrp-NH2 | – | – | – |
| – | 170 ± 19 ng/mL | 181 ± 31 ng/mL | 161 ± 20 ng/mL | DPhe-Ala-Phe-DPal-NH2 ([dF]AF[dPal]-NH2; reading uncertain; also: printed as DPhe-Ala-Phe-DPal-NH2) | – | – | Unstimulated Basal GH release from cell cultures of pituitary cells [2, 11]: 146 ± 21 ng/mL |

From patent US9724381B2 (THE ADMINISTRATORS OF THE TULANE EDUCATIONAL FUND, priority 2009, dated 2017)
